From paper PMC10680704

Target: IGF2R ectodomain, recombinant, AlexaFlour488-labeled (UniProt P11717)

| EC50 of mCherry uptake by K562 cells [nM] | Substance |
| --- | --- |
| 16 | G2 mCherry GELYTAC (IGF2 E6R, F19L, S39P), recombinant |
| 101 | mCherry GELYTAC (original, wild-type IGF2), recombinant |
